A protein production outcome set (Wang et al. 2014)

Assay: label from the status in PepcDB records

| Sequence | protein production |
| --- | --- |
| MKKLTSLFPLLFLIPLLASCAEEKQVYIVYFGEHKGDKAFHEIEEHHHSYLQSVKESEEDARASLLYSYKHSINGFAAELTPDQASKLEKLAEVVSVFKSHPRKYEAHTTRSWEFVGLEEEETDSDVPRRKNDADDRFRVGRNFLKKAKHGDGIIVGVLDSGVWPESKSFNDKGMGPVPKSWKGICQTGVAFNSSHCNRKIIGARYYVKGYERYYGAFNATANKDFLSPRDPDGHGSHTASTAVGRRVLGASALGGFAKGSASGGAPLARLAIYKACWAKPNAEKVEGNICLEEDMLAAIDDAIADGVHVISISIGTTEPFPFTQDGIAMGALHAVKRNIVVAASAGNSGPKPGTLSNLAPWIITVGASTLDRAFVGGLVLGNGYTIKTDSITAFKMDKFAPLVYASNVVVPGIALNETSQCLPNSLKPELVSGKVVLCLRGAGSRIGKGMEVKRAGGAGMILGNIAANGNEVPSDSHFVPTAGVTPTVVDKILEYIKTDKNPKAFIKPGKTVYKYQAAPSMTGFSSRGPNVVDPNILKPDITAPGLYILAAWSGADSPSKMSVDQRVAGYNIYSGTSMSCPHVAGAIALLKAIHPKWSSAAIRSALMTTAWMTNDKKKPIQDTTGLPANPFALGSGHFRPTKAADPGLVYDASYRAYLLYGCSVNITNIDPTFKCPSKIPPGYNHNYPSIAVPNLKKTVTVKRTVTNVGTGNSTSTYLFSVKPPSGISVKAIPNILSFNRIGQKQRFKIVIKPLKNQVMNATEKGQYQFGWFSWTDKVHVVRSPIAVSLA | failed |
| MKKMKTLTLFLSLLFSFPFVLSAQMVGETLQKVSAALDNRQWDQAVTLFRQAVNTNVEKAEMFYWTGVDKSLEVSSRIGRELAAYYKKSRSYDKAYLFYKELLQKSPNDVNCLVSCAEMEVCRGRESEALETYRKVLSLDADNLAANIFIGNYLYLKAEREKKQLEADYKKISAPTRMQYARYRDGLSRVMSTGYGKAREYLQKVISQFPSTEAQKTLERIKLIEKEVNR | failed |
| MKKPNHSGSGQIRIIGGQWRGRKLPVPDSPGLRPTTDRVRETLFNWLAPVIVDAQCLDCFAGSGALGLEALSRYAAGATLIEMDRAVSQQLIKNLATLKAGNARVVNSNAMSFLAQKGTPHNIVFVDPPFRRGLLEETINLLEDNGWLADEALIYVESEVENGLPTVPANWSLHREKVAGQVAYRLYQREAQGESDAD | not failed |
| MKKRAIVAVIVLLLIGLDQLVKSYIVQQIPLGEVRSWIPNFVSLTYLQNRGAAFSILQDQQLLFAVITLVVVIGAIWYLHKHMEDSFWMVLGLTLIIAGGLGNFIDRVSQGFVVDMFHLDFINFAIFNVADSYLTVGVIILLIAMLKEEINGN | failed |
| MKKRILSAVLVSGVTLGAATTVGAEDLSTKIAKQDSIISNLTTEQKAAQNQVSALQAQVSSLQSEQDKLTARNTELEALSKRFEQEIKALTSQIVARNEKLKNQARSAYKNNETSGYINALLNSKSISDVVNRLVAINRAVSANAKLLEQQKADKVSLEEKQAANQTAINTIAANMAMAEENQNTLRTQQANLEAATANLALQLASATEDKANLVAQKEAAEKAAAEALAQEQAAKVKAQEQAAQQAASVEAAKSAITPAPQATPAAQSSNAIEPAALTAPAAPSARPQTSYDSSNTYPVGQCTWGAKSLAPWAGNNWGNGGQWAYSAQAAGYRTGSTPMVGAIAVWNDGGYGHVAVVVEVQSASSIRVMESNYSGRQYIADHRGWFNPTGVTFIYPHLEHHHHHH | failed |
| MKKSSILILIIICLVGCKKGSNETTITGEIKGLGTDTLYLYGMDELYDRIDTIYVENDKFSYTTSVDTITSAYLLLKNRIEYPVFLDKGNKIKIKGDTINLNFLTISGNIYNEEFTDFQKALEDPADPSEKAGEETVDKRITVEKANTAEEMAEEFILQHHSSYVSLYLLDKYFVQKETPDFSKIKKLVEVMTGVLQDKPYIERLNETITQAEKSEIGKYAPFFSLPNAKGEKITRSSDAFKQKSLLINFWASWNDSISQKQSNSELREIYKKYKKNKYIGMLGISLDVDKQQWKDAIKRDTLDWEQVCDFGGLNSEVAKQYSIYKIPANILLSSDGKILAKNLRGEELKKKIENIVEEATEKEKKNKQKK | failed |
| MKKTLKILAGFVAVVIIIALGIFTSRKLYQNHVDKINHIGKVMDSYKGVKVYYNGKKYAESHGKNYSKDGYYYGYKWQVEYIKRFYYEAKGHSMPNGFGNAKDFFDPKVGQGKLNKDRGLFQYKNGENEKPKADDILVFTDTKYGHVVIVTKVTDDTVEVIQQNMGNKTRDQFKLEYENGKYFVCGKRKPKGWLRKGLEHHHHHH | not failed |
| MKKTLLAIVAVSALSACRQAEEGPPPLPRQISDRSVGHYCSMNLTEHNGPKAQIFLNGKPDQPVWFSTIKQMFGYTKLPEEPKGIRVIYVTDMGNVTDWTNPNADTEWMDAKKAFYVIDSGFIGGMGAEDALPFGNKEQAEKFAKDKGGKVVGFDDMPDTYIFK | failed |
| MKKVFITTGTEHYLRQLMENYIGENVTLLQNFSQSLLYQESTGEKLFQEGKEYRVLQSSGSLKGFGIVVFEYIQLRDEEIPIFLQMYQHASLHFSETPGLQSTKLTKAMNTNQFLIVSFWDSEVFFQEWKKTPLHKEITSIMKKNNTQVGFSHEDIYHYPEFSHDAK | not failed |
| MKKWIKIVLYSLLAILIVGSITFLSWSQFTYKPTKEALSLVDDKKDEDYIVFGEKDAKIGVIFYQGAKVEAEAYSYLGEALAKDGHFVVMPKLPLNLALFGINEVDSVIEQYPEVQKWYVAGHSMGGAMISRYAFQHEEKVDGIIFLGSYPADDFSTKSIPMLSIYGEVDALATVEKIENNKKFMSKNTTMHMIKGGNHAHFGMYGEQKGDNASLITAKAQRDETVKVIEQWLLEQ | failed |
| MKKWLLAAGLGLALATSAQAADKIAIVNMGSLFQQVAQKTGVSNTLENEFKGRASELQRMETDLQAKMKKLQSMKAGSDRTKLEKDVMAQRQTFAQKAQAFEQDRARRSNEERGKLVTRIQTAVKSVANSQDIDLVVDANAVAYNSSDVKDITADVLKQVK | not failed |
| MKKWRFLGIDDSFDDRKCCVVGCVTCGGYVEGFLYTEIDIDGLDATDKLISMVRRSKFREQIKCIFLPGITLGGFNLVDIQRVYRETKIPVVVVMRRKPDMEEFDSAMRNLENYELRRKIVEVAGEIHRIGDIYIQTAGLTPSEAEKLVKASLIKGNMPEPVRISHLVASAIIHGESRGKA | not failed |
| MKLASGFLVLWLSLGGGLAQSDTSPDTEESYSDWGLRHLRGSFESVNSYFDSFLELLGGKNGVCQYRCRYGKAPMPRPGYKPQEPNGCGSYFLGLKVPESMDLGIPAMTKCCNQLDVCYDTCGANKYRCDAKFRWCLHSICSDLKRSLGFVSKVEAACDSLVDTVFNTVWTLGCRPFMNSQRAACICAEEEKEEL | failed |
| MKLAYWMYAGPAHIGTLRVATSFKNVHAIMHAPLGDDYFNVMRSMLSRERDFTPVTTSVVDRHVLARGSQEKVVDNITRKDAEERPDLIVLTPTCTSSILQEDLENFVERAQLEAKGDVLLADVNHYRVNELQAGDRTLHQIVQYYIEKARKKGELPEGKTAKPSVNIIGISTLGFHNNHDCTELKRLMADLGIEVNAVIPEGASVHELKNLPRAWFNLVPYRELGLMTANYLEKEFGTPCIDIVPMGVVETARCIRKIQEVINAQGADVNYEDYINEQTLYVSQAAWFSRSIDCQNLTGKKAVVFGDNTHAAALTKILSREMGIHVVWAGTYCKYDADWFREQVSEYCDEVLITEDHGEIGDAIARVEPSAIFGTQMERHVGKRLDIPCGVIAAPIHVQNFPIGYKPFLGYEGTNQITDLIYNSFTLGMEDHLLEIFGGHDTKEVITKGISAGSDLSWTKDGLAELNKIPGFVRGKVKRNTEKFARDRGFKDISAEVLYAAKEAVGA | failed |
| MKLCFNEATTLENSNLKLDLELCEKHGYDYIEIRTMDKLPEYLKDHSLDDLAEYFQTHHIKPLALNALVFFNNRDEKGHNEIITEFKGMMETCKTLGVKYVVAVPLVTEQKIVKEEIKKSSVDVLTELSDIAEPYGVKIALEFVGHPQCTVNTFEQAYEIVNTVNRDNVGLVLDSFHFHAMGSNIESLKQADGKKIFIYHIDDTEDFPIGFLTDEDRVWPGQGAIDLDAHLSALKEIGFSDVVSVELFRPEYYKLTAEEAIQTAKKTTVDVVSKYFSM | not failed |
| MKLEERIKSKITILVFIAILMYFLLNYGNDVRGIINNIYSIFFPFILGGCIAFILNIPVTFFSKKLLNCKIKFIGKVVRKYNISISIVASCILIIGIFALISAIIIPNIIQTIKILPNAFDNSITAFQKFVNENSWMSKNVTSLVNNLNIDWNGILNKVKITIITGASSVFMSTLGAATTFASTAIEFVLSFIFSIYILAQKNKLGTQVKMVLYAFFKKQKVDSALEVLKLTSNTFSNFITGQCTVSIILGVMFFIVMTILKLPYAIEVSIIIAFFSVIPMIGSIIGFVLSVLLLLIFNPIKAGVFVFVFLAIKQVEDNFIYPKIVGNSVGLPSILVLVAITLGGKVLGVPGMIMSIPLFSVAYVLLRKEVYTRLEKKALKVE | failed |
| MKLETIDYRAADSAKRFVESLRETGFGVLSNHPIDKELVERIYTEWQAFFNSEAKNEFMFNRETHDGFFPASISETAKGHTVKDIKEYYHVYPWGRIPDSLRANILAYYEKANTLASELLEWIETYSPDEIKAKFSIPLPEMIANSHKTLLRILHYPPMTGDEEMGAIRAAAHEDINLITVLPTANEPGLQVKAKDGSWLDVPSDFGNIIINIGDMLQEASDGYFPSTSHRVINPEGTDKTKSRISLPLFLHPHPSVVLSERYTADSYLMERLRELGVL | not failed |
| MKLHTSDLLIICAYLIAMIVIGLILKKRAAQNMDSYFLGGKSLPFYMLGLSNASGMFDITGTMLMVYWAFAYGFKSLWIPWLWPVFNQIFLMVYLSVWLRRSNVLTGAEWIKTRFGKGKGATLSHTIVVVFALLSVLGFLSYGFIGIGKFMEIFIPWEVISPYIPFTVSPEYVPHVYGIFFTAIATFYVMLGGMLSIVWTDVVQFLIMTVAGIVIVVIGMQMVAPDMIHSFVPAGWDSPFFGWTLDIDWSSRMSLLTERMANEPYSLIGIFVMMALLKGIFMSMAGPAPNYDMQKILSCKSPKEAAMMSGSVSVVLLIPRYLMIMGFALLAIYFFKEDGGLTQMEVTRTDFETILPHLITRYVPAGFAGLLLAGLLAAFMSTFASTVNAAPAYIVNDIYLKYINPKASVKTQIRSSYVISVAVVVVSTVIGFFLKDINEIFQWIVGALFGGYIAANVLKWHWWRFNGEGYFWGMTAGVVAAIVMKFTVPDAWVLYFFPVLFGVSLIGCIIGTYSAPATDEETLINFYVNVRPWGCWKPIQEKAIARYPHIQANKNFKRDAFNVAIGIIWQCTLTIIPMYLVVREQLGLWSSIALLLITTLILRKTWYKPLCKEEARYNEEMKQIR | failed |
| MKLIAIDLDGTLLNSKHQVSLENENALRQAQRDGIEVVVSTGRAHFDVMSIFEPLGIKTWVISANGAVIHDPEGRLYHHETIDKKRAYDILSWLESENYYYEVFTGSAIYTPQNGRELLDVELDRFRSANPEADLSVLKQAAEVQYSQSGFAYINSFQELFEADEPIDFYNILGFSFFKEKLEAGWKRYEHAEDLTLVSSAEHNFELSSRKASKGQALKRLAKQLNIPLEETAAVGDSLNDKSMLEAAGKGVAMGNAREDIKSIADAVTLTNDEHGVAHMMKHLL | not failed |
| MKLKGVDNKILSNIFSLLSVQGALYIIPLITLPYLVRTLGVENYGVFGFSLAIVSYMSLIVDYGFNITATKTGAEIRYDKNKLSKLFFEILYSKLFMFIICSLSSILFSFFVENNIFNKDIIFVLMFTVFSQVIFPIWFFQAIEELKLVATLNFISKSLSVPLIFILINDEKDLIKLAVIHAITTIIPAIYSVYYIHIRKLVFFYKPSLNSIVSQIKNGWHIFLSGISISFYSTIVTVFLGIFSGATETGYFVAADRLRKAVQGISGPISQSFYPRINSLINTNKKSAINLIKVLYKIQFIVTFILSSLLFIFSEEIVEVLYGNGFVQSIVILKVLSYVPFFVSMSNASGICVIVSFGFNRLFSKIMMFSGGVGVALSFLLINSYGAIGSGLSILISEFIIAIIMIYFVIKLKLLKQ | failed |
| MKLKNILIVVDNIEESIHFYNELFGLNVISRQEGNVIMSEGLVLQDAGIWKESMQIQTIPYNNMTELYFEDNDIEGVVKKLESGRYEVRYATALTELDGGQKLVRFYDQSGNLIEVRTPWDKFVNRE | failed |
